Like-named read-outs stand apart in the source and are kept apart here.
What was measured:
AE.A244 gD+ gp120 N160K = biological target: T1, AE.A244 gD+ gp120 N160K (HIV-1); assay: ELISA
T1 construct: domain: gp120

MN gp120 = MN gp120 (HIV-1)
Con 6 gp120 [1] = assay: ELISA, OD405 at 10 ug/ml
B.63521_V1/V2 tags [2] = assay: ELISA, OD405 at 10 ug/ml
B.62357 gp140C [3] = biological target: T2, B.62357 gp140C; assay: ELISA, OD405 at 10 ug/ml
T2 construct: also called B.62357 140C

AE.A244 gp120 delta 11 = biological target: T3, AE.A244 gp120 delta 11 (HIV-1); assay: SPR, mAb captured on anti-Fc, monomeric gp120 injected
T3 construct: also called E.A244gp120Δ11; AE.A244 Δ11 gp120

A.9004SS V1/V2 tags [4] = biological target: T4, A.9004SS V1/V2 tags; assay: ELISA, OD405 at 10 ug/ml
T4 V1V2 tags construct: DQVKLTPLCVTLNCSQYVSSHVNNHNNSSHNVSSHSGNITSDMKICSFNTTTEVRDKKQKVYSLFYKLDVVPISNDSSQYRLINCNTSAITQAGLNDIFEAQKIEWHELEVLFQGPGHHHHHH

D.9009SA V1/V2 tags = assay: ELISA, OD405 at 10 ug/ml
G.con gp140CF [5] = assay: ELISA, OD405 at 10 ug/ml
AE.con gp140CF [6] = assay: ELISA, OD405 at 10 ug/ml
Con 6 gp120 [7] = assay: ELISA, OD405 at 10 ug/ml; remark: listed apart in the source
B.Case A2 V1/V2 tags [8] = assay: ELISA, OD405 at 10 ug/ml
B.con gp140CF [9] = assay: ELISA, OD405 at 10 ug/ml
C.1086 gp140 [10] = biological target: T5, C.1086 gp140; assay: ELISA, OD405 at 10 ug/ml
T5 construct: also called C.1086gp140C

B.63521_V1/V2 tags [11] = assay: ELISA, OD405 at 10 ug/ml; remark: listed apart in the source
B.040 gp140C [12] = assay: ELISA, OD405 at 10 ug/ml
B.62357 gp140C [13] = biological target: T2, B.62357 gp140C; assay: ELISA, OD405 at 10 ug/ml; remark: listed apart in the source
G.con gp140CF [14] = biological target: T6, G.con gp140CF; assay: ELISA, OD405
T6 construct: also called G.con.env03 gp140CF

B.040 gp140C [15] = assay: ELISA, OD405
B. 684-6 gp140C = assay: ELISA, OD405
C.CAP206 gp140CF.12 = C.CAP206 gp140CF.12 (HIV-1); assay: ELISA, OD405
AE.97CNG2XF gp140CF [16] = biological target: T7, AE.97CNG2XF gp140CF (HIV-1); assay: ELISA, OD405
T7 construct: also called E.97CNGX2F gp140CF

AE.con gp140CF [17] = biological target: T8, AE.con gp140CF; assay: ELISA, OD405
T8 construct: also called AE.con.env03 gp140CF

B.63521 gp140C = assay: ELISA, OD405
Con 6 gp120 [18] = assay: ELISA, OD405
B.HXB/BAL gp140CFI = biological target: T9, B.HXB/BAL gp140CFI (HIV-1, UniProt P04578 33-680); assay: ELISA, OD405
T9 construct: also called B.HxB/Ba gp140 CFI

B.9021 gp140C = B.9021 gp140C (HIV-1); assay: ELISA, OD405
B.con gp140CF [19] = biological target: T10, B.con gp140CF; assay: ELISA, OD405
T10 construct: also called B.con.env03 gp140CF

B.62357 140C = biological target: T11, B.62357 140C; assay: ELISA, OD405
T11 construct: also called B.62357 gp140C

C.1086 gp140 [20] = biological target: T12, C.1086 gp140; assay: ELISA, OD405
T12 construct: also called C.1086gp140C

B. 681-7 gp140C = assay: ELISA, OD405
A.9004SS V1/V2 tags [21] = biological target: T4, A.9004SS V1/V2 tags; assay: ELISA, OD405 at 10 ug/ml
AE.97CNG2XF gp140CF [22] = biological target: T7, AE.97CNG2XF gp140CF; assay: ELISA, OD405 at 10 ug/ml
B.Case A2 V1/V2 tags [23] = assay: ELISA, OD405 at 10 ug/ml; remark: listed apart in the source

B1: CH59 (antibody, V domains shown)
VH: EVQLVESGGGLVQPGRSLRLSCAASGFTFDDGAMHWVRQAPGKGLEWVSGISWNSNIIAYADSVKGRFTISRDNAKNSLYLEMNSLRVEDTALYYCAKDSPRGELPLNYWGQGTLVTVSS
VL: SYELTQPPSVSVSPGQTARITCSGDALPKNYAYWYQQKSGQAPVLVIYEDSKRPSGIPERFSGSSSGTMATLTISGAQVEDEADYYCYSTDSSGNHRVFGGGTKLTVL
notes: also called mAb CH59
Question: Which results are given for B1?
Answer: EC50 (AE.A244 gD+ gp120 N160K): 0.03 nM; IC50 (MN gp120): 10 to 100 nM; binding result (Con 6 gp120 [1]): no binding (tested: 10 ug/ml); binding result (B.63521_V1/V2 tags [2]): no binding (tested: 10 ug/ml); binding result (B.62357 gp140C [3]): no binding (tested: 10 ug/ml); Kd (AE.A244 gp120 delta 11): 2.2 nM

B2: CH59 reverted unmutated ancestor antibody (antibody, V domains shown)
VH: EVQLVESGGGLVQPGRSLRLSCAASGFTFDDYAMHWVRQAPGKGLEWVSGISWNSGSIGYADSVKGRFTISRDNAKNSLYLQMNSLRAEDTALYYCAKDSPRGELPFDYWGQGTLVTVSS
VL: SYELTQPPSVSVSPGQTARITCSGDALPKKYAYWYQQKSGQAPVLVIYEDSKRPSGIPERFSGSSSGTMATLTISGAQVEDEADYYCYSTDSSGNHRVFGGGTKLTVL
notes: also called CH59 RUA; CH59_RUA
Question: Does B2 bind (A.9004SS V1/V2 tags [4])?
Answer: Result: no binding (tested: 10 ug/ml)

Question: Does B2 bind (D.9009SA V1/V2 tags)?
Answer: Result: no binding (tested: 10 ug/ml)

Question: Does B2 bind (G.con gp140CF [5])?
Answer: Result: no binding (tested: 10 ug/ml)

Question: Does B2 bind (AE.con gp140CF [6])?
Answer: Result: no binding (tested: 10 ug/ml)

Question: Does B2 bind (Con 6 gp120 [7])?
Answer: Result: no binding (tested: 10 ug/ml)

Question: Does B2 bind (B.Case A2 V1/V2 tags [8])?
Answer: Result: no binding (tested: 10 ug/ml)

Question: Does B2 bind (B.con gp140CF [9])?
Answer: Result: no binding (tested: 10 ug/ml)

Question: Does B2 bind (C.1086 gp140 [10])?
Answer: Result: no binding (tested: 10 ug/ml)

Question: Does B2 bind (B.63521_V1/V2 tags [11])?
Answer: Result: no binding (tested: 10 ug/ml)

Question: Does B2 bind (B.040 gp140C [12])?
Answer: Result: no binding (tested: 10 ug/ml)

Question: Does B2 bind (B.62357 gp140C [13])?
Answer: Result: no binding (tested: 10 ug/ml)

B3: CH58 reverted unmutated ancestor antibody (antibody, V domains shown)
VH: EVQLVQSGAEVKKPGESLKISCKGSGYSFTSYWIGWVRQMPGKGLEWMGIIYPGDSDTRYSPSFQGQVTISADKSISTAYLQWSSLKASDTAMYYCARLGGRYYYDSSGYYYFDYWGQGTLVTVSS
VL: NFMLTQPHSVSESPGKTVTISCTRSSGSIASNYVQWYQQRPGSSPTTVIYEDNQRPSGVPDRFSGSIDSSSNSASLTISGLKTEDEADYYCQSYDSSSWVFGGGTKLTVL
notes: also called CH58 RUA; CH58_RUA
Question: Does B3 bind (G.con gp140CF [14])?
Answer: Result: no binding (tested: 10 ug/ml)

Question: Does B3 bind (B.040 gp140C [15])?
Answer: Result: no binding (tested: 10 ug/ml)

Question: Does B3 bind (B. 684-6 gp140C)?
Answer: Result: no binding (tested: 10 ug/ml)

Question: Does B3 bind (C.CAP206 gp140CF.12)?
Answer: Result: no binding (tested: 10 ug/ml)

Question: Does B3 bind (AE.97CNG2XF gp140CF [16])?
Answer: Result: no binding (tested: 10 ug/ml)

Question: Does B3 bind (AE.con gp140CF [17])?
Answer: Result: no binding (tested: 10 ug/ml)

Question: Does B3 bind (B.63521 gp140C)?
Answer: Result: no binding (tested: 10 ug/ml)

Question: Does B3 bind (Con 6 gp120 [18])?
Answer: Result: no binding (tested: 10 ug/ml)

Question: Does B3 bind (B.HXB/BAL gp140CFI)?
Answer: Result: no binding (tested: 10 ug/ml)

Question: Does B3 bind (B.9021 gp140C)?
Answer: Result: no binding (tested: 10 ug/ml)

Question: Does B3 bind (B.con gp140CF [19])?
Answer: Result: no binding (tested: 10 ug/ml)

Question: Does B3 bind (B.62357 140C)?
Answer: Result: no binding (tested: 10 ug/ml)

Question: Does B3 bind (C.1086 gp140 [20])?
Answer: Result: no binding (tested: 10 ug/ml)

Question: Does B3 bind (B. 681-7 gp140C)?
Answer: Result: no binding (tested: 10 ug/ml)

B4: 697D reverted unmutated ancestor antibody (antibody, V domains shown)
VH: QVQLVQSGAEVKKPGSSVKVSCKASGGTFSSYTISWVRQAPGQGLEWMGRIIPILGIANYAQKFQGRVTITADKSTSTAYMELSSLRSEDTAVYYCATSGVGLHFGYFDYWGQGTLVTVSS
VL: QSVLTQPPSVSGAPGQRVTISCTGSSSNIGAGYDVHWYQQLPGTAPKLLIYGNSNRPSGVPDRFSGSKSGTSASLAITGLQAEDEADYYCQSYDSSLSGYVFGTGTKVTVL
notes: also called 697D RUA
Question: Which results are given for B4?
Answer: binding result (A.9004SS V1/V2 tags [21]): no binding (tested: 10 ug/ml); binding result (AE.97CNG2XF gp140CF [22]): no binding (tested: 10 ug/ml); binding result (B.Case A2 V1/V2 tags [23]): no binding (tested: 10 ug/ml)
